Patent JP2012050437A

Molecular target: soluble Aβ1-42 (125I-labelled) (human) (UniProt P05067)
Assay: capture radioimmunoassay, 50,000 CPM 125I-Aβ1-42, antibody at 10 µg/ml

percent of radioactive counts bound at 10 µg/ml: 2%
Substance: murine monoclonal antibody 10D5 (isotype IgG1)
